Results taken from article doi:10.1101/2025.01.28.635075.
“And” between values parts separate entries of the source, which are not always exact repeats. Identical values can stand only once.

Experiments:
[1] = biological target: soluble methane monooxygenase hydroxylase (MMOH), α2β2γ2, from Methylosinus sporium 5 (Methylosinus sporium 5); assay: cryo-EM structure
[2] = biological target: MMOH protomer (αβγ) from Methylosinus sporium 5 (Methylosinus sporium 5); assay: cryo-EM structure

stoichiometry N [1]	stoichiometry N [2]	Substance
1 and 2	–	regulatory component of soluble methane monooxygenase (MMOB) from Methylosinus sporium 5 (natural protein)
–	2	MMOH protomer (αβγ) from Methylosinus sporium 5 (from UniProt A0ACH3GMT4 1-520) (complex)
